T1: CD52 human leukocyte antigen (human, UniProt P31358 25-36)
T1 construct: whole, on cells; also called CD52 antigen
T1 chain (looked up): GQNDTSQTSSPS


Molecular target: T1, CD52 human leukocyte antigen
Assay: FACS on HUT-78 cells (CD52+), FITC anti-human IgG Fc, median fluorescence, 4-parameter fit; titre = 50% of maximum binding
Description: Human T-cell lymphoma cell line HUT-78 is CD52 positive and was used to assess binding of the modified antibodies of the present invention. In the present example, different concentrations of test antibody were incubated with the cells and the amount of bound antibody was assessed following incubation with a fluorescent-labelled reporter reagent. The reporter is measured using a fluorescence activated cell sorter (FACS).
For detection, the cells were incubated for 1 hour on ice with a 1:1000 dilution of FITC-labelled anti-human IgG Fc domain. This reagent is a goat anti-human IgG (Fc specific) obtained from Sigma (Poole, UK). The cells were washed as previously and re-suspended in 100 μl of PBS/2% FBS and transferred to 4 ml FACS tubes (Becton Dickinson) containing 900 μl of PBS/2% FBS/Propidium Iodide (1:1000). The cells were analysed using a conventional Becton Dickenson FACS Calibur instrument.
The binding of the test and control antibodies was determined using the Median Fluorescence value. The saturating concentration of antibody was determined from plots of the Median Fluorescence—Zero Antibody Median Fluorescence versus Concentration of antibody. The binding curves were fitted to a logistic 4 parameter sigmoidal equation using SigmaPlot, giving an excellent fit with 95% confidence levels.

Row | EC50 | Binder
1 | 2.39 µg/mL | DIVH4/DIVK5 (antibody, human IgG1, V domains shown, also called DIVHv4/DIVKv5) VH: EVQLLESGGGLVQPGGSLRLSCAGSGFTFTDFYMNWVRQAPGKGLEWVGFIRDKAKGYTTEYNPSVKGRFTISRDNAKNSLYLQMNSLRAEDTAVYYCAREGHTAAPFDYWGQGTLVTVSS VL: DIQMTQSPSSLSASVGDRVTITCKASQNIDKYLNWYQQKPGKSPKLLIYNTNNLQTGVPSRFSGSGSGTDFTLTISSLQPEDIATYYCLQHISRPRTFGTGTKLELK
2 | 2.45 µg/mL | DIVH5/DIVK2 (antibody, human IgG1, V domains shown, also called DIVHv5/DIVKv2) VH: EVQLLESGGGLVQPGGSLRLSCAGSGFTFTDFYMNWIRQPPGKAPEWLGFIRDKAKGYTTEYNPSVKGRFTISRDNSKNTLYLQMNSLRAEDTAVYYCAREGHTAAPFDYWGQGTLVTVSS VL: DIQMTQSPSSLSASVGDRVTITCKASQNIDKYLNWYQQKPGKAPKLLIYNTNNLQTGVPSRFSGSGSGTDFTLTISSLQPEDIATYYCLQHISRPRTFGTGTKLELK
3 | 2.28 µg/mL | DIVH4/DIVK3 (antibody, human IgG1, V domains shown, also called DIVHv4/DIVKv3) VH: EVQLLESGGGLVQPGGSLRLSCAGSGFTFTDFYMNWVRQAPGKGLEWVGFIRDKAKGYTTEYNPSVKGRFTISRDNAKNSLYLQMNSLRAEDTAVYYCAREGHTAAPFDYWGQGTLVTVSS VL: DIQMTQSPSSLSASVGDRVTITCRASQNIDKYLNWYQQKPGKAPKLLIYNTNNLQSGVPSRFSGSGSGTDFTLTISSLQPEDIATYYCLQHISRPRTFGTGTKLELK
4 | 8.54 µg/mL | DIVH4/DIVK4 (antibody, human IgG1, V domains shown, also called DIVHv4/DIVKv4) VH: EVQLLESGGGLVQPGGSLRLSCAGSGFTFTDFYMNWVRQAPGKGLEWVGFIRDKAKGYTTEYNPSVKGRFTISRDNAKNSLYLQMNSLRAEDTAVYYCAREGHTAAPFDYWGQGTLVTVSS VL: DIQMTQSPSSLSASVGDRVTITCKASQNIDKYLNWYQQKPGKAPKSLIYNTNNLQTGVPSRFSGSGSGTDFTLTISSLQPEDIATYYCLQHISRPRTFGTGTKLELK
5 | 4.05 µg/mL | DIVH5/DIVK4 (antibody, human IgG1, V domains shown, also called DIVHv5/DIVKv4) VH: EVQLLESGGGLVQPGGSLRLSCAGSGFTFTDFYMNWIRQPPGKAPEWLGFIRDKAKGYTTEYNPSVKGRFTISRDNSKNTLYLQMNSLRAEDTAVYYCAREGHTAAPFDYWGQGTLVTVSS VL: DIQMTQSPSSLSASVGDRVTITCKASQNIDKYLNWYQQKPGKAPKSLIYNTNNLQTGVPSRFSGSGSGTDFTLTISSLQPEDIATYYCLQHISRPRTFGTGTKLELK
6 | 4.01 µg/mL | DIVH5/DIVK1 (antibody, human IgG1, V domains shown, also called DIVHv5/DIVKv1) VH: EVQLLESGGGLVQPGGSLRLSCAGSGFTFTDFYMNWIRQPPGKAPEWLGFIRDKAKGYTTEYNPSVKGRFTISRDNSKNTLYLQMNSLRAEDTAVYYCAREGHTAAPFDYWGQGTLVTVSS VL: DIQMTQSPSSLSASVGDRVTITCRASQNIDKYLNWYQQKPGKAPKSLIYNTNNLQSGVPSRFSGSGSGTDFTLTISSLQPEDIATYYCLQHISRPRTFGTGTKLELK
7 | 1.59 µg/mL | DIVH4/DIVK2 (antibody, human IgG1, V domains shown, also called DIVHv4/DIVKv2) VH: EVQLLESGGGLVQPGGSLRLSCAGSGFTFTDFYMNWVRQAPGKGLEWVGFIRDKAKGYTTEYNPSVKGRFTISRDNAKNSLYLQMNSLRAEDTAVYYCAREGHTAAPFDYWGQGTLVTVSS VL: DIQMTQSPSSLSASVGDRVTITCKASQNIDKYLNWYQQKPGKAPKLLIYNTNNLQTGVPSRFSGSGSGTDFTLTISSLQPEDIATYYCLQHISRPRTFGTGTKLELK
8 | 2.55 µg/mL | DIVH5/DIVK3 (antibody, human IgG1, V domains shown, also called DIVHv5/DIVKv3) VH: EVQLLESGGGLVQPGGSLRLSCAGSGFTFTDFYMNWIRQPPGKAPEWLGFIRDKAKGYTTEYNPSVKGRFTISRDNSKNTLYLQMNSLRAEDTAVYYCAREGHTAAPFDYWGQGTLVTVSS VL: DIQMTQSPSSLSASVGDRVTITCRASQNIDKYLNWYQQKPGKAPKLLIYNTNNLQSGVPSRFSGSGSGTDFTLTISSLQPEDIATYYCLQHISRPRTFGTGTKLELK
9 | 4.43 µg/mL | DIVH4/DIVK1 (antibody, human IgG1, V domains shown, also called DIVHv4/DIVKv1) VH: EVQLLESGGGLVQPGGSLRLSCAGSGFTFTDFYMNWVRQAPGKGLEWVGFIRDKAKGYTTEYNPSVKGRFTISRDNAKNSLYLQMNSLRAEDTAVYYCAREGHTAAPFDYWGQGTLVTVSS VL: DIQMTQSPSSLSASVGDRVTITCRASQNIDKYLNWYQQKPGKAPKSLIYNTNNLQSGVPSRFSGSGSGTDFTLTISSLQPEDIATYYCLQHISRPRTFGTGTKLELK

Further lines, the binder ahead of its results:

Row | Binder | EC50
10 | DIVH2/DIVK2 (antibody, human IgG1, V domains shown, also called DIVH2IDIVK2; DIVHv2/DIVKv2) VH: EVQLLESGGGLVQPGGSLRLSCAGSGFTFTDFYMNWIRQPPGKAPEWIGFIRDKAKGYTTEYNPSVKGRFTISRDNSKNTLYLQMNSLRAEDTAVYYCAREGHTAAPFDYWGQGTLVTVSS VL: DIQMTQSPSSLSASVGDRVTITCKASQNIDKYLNWYQQKPGKAPKLLIYNTNNLQTGVPSRFSGSGSGTDFTLTISSLQPEDIATYYCLQHISRPRTFGTGTKLELK | 3.7 µg/mL
11 | DIVH2/DIVK4 (antibody, human IgG1, V domains shown, also called DIVHv2/DIVKv4) VH: EVQLLESGGGLVQPGGSLRLSCAGSGFTFTDFYMNWIRQPPGKAPEWIGFIRDKAKGYTTEYNPSVKGRFTISRDNSKNTLYLQMNSLRAEDTAVYYCAREGHTAAPFDYWGQGTLVTVSS VL: DIQMTQSPSSLSASVGDRVTITCKASQNIDKYLNWYQQKPGKAPKSLIYNTNNLQTGVPSRFSGSGSGTDFTLTISSLQPEDIATYYCLQHISRPRTFGTGTKLELK | 6.21 µg/mL
12 | DIVH2/DIVK5 (antibody, human IgG1, V domains shown, also called DIVHv2/DIVKv5; CAMPATH-1G DIVHv2/DIVKv5) VH: EVQLLESGGGLVQPGGSLRLSCAGSGFTFTDFYMNWIRQPPGKAPEWIGFIRDKAKGYTTEYNPSVKGRFTISRDNSKNTLYLQMNSLRAEDTAVYYCAREGHTAAPFDYWGQGTLVTVSS VL: DIQMTQSPSSLSASVGDRVTITCKASQNIDKYLNWYQQKPGKSPKLLIYNTNNLQTGVPSRFSGSGSGTDFTLTISSLQPEDIATYYCLQHISRPRTFGTGTKLELK | 1.18 µg/mL
13 | DIVH1/DIVK2 (antibody, human IgG1, V domains shown, also called DIVHv1/DIVKv2) VH: EVQLLESGGGLVQPGGSLRLSCAGSGFTFTDFYMNWVRQAPGKGLEWVGFIRDKAKGYTTEYNPSVKGRFTISRDNSKNTLYLQMNSLRAEDTAVYYCAREGHTAAPFDYWGQGTLVTVSS VL: DIQMTQSPSSLSASVGDRVTITCKASQNIDKYLNWYQQKPGKAPKLLIYNTNNLQTGVPSRFSGSGSGTDFTLTISSLQPEDIATYYCLQHISRPRTFGTGTKLELK | 1.66 µg/mL
14 | DIVH1/DIVK1 (antibody, human IgG1, V domains shown, also called DIVHv1/DIVKv1) VH: EVQLLESGGGLVQPGGSLRLSCAGSGFTFTDFYMNWVRQAPGKGLEWVGFIRDKAKGYTTEYNPSVKGRFTISRDNSKNTLYLQMNSLRAEDTAVYYCAREGHTAAPFDYWGQGTLVTVSS VL: DIQMTQSPSSLSASVGDRVTITCRASQNIDKYLNWYQQKPGKAPKSLIYNTNNLQSGVPSRFSGSGSGTDFTLTISSLQPEDIATYYCLQHISRPRTFGTGTKLELK | 2.99 µg/mL
15 | DIVH2/DIVK1 (antibody, human IgG1, V domains shown, also called DIVHv2/DIVKv1) VH: EVQLLESGGGLVQPGGSLRLSCAGSGFTFTDFYMNWIRQPPGKAPEWIGFIRDKAKGYTTEYNPSVKGRFTISRDNSKNTLYLQMNSLRAEDTAVYYCAREGHTAAPFDYWGQGTLVTVSS VL: DIQMTQSPSSLSASVGDRVTITCRASQNIDKYLNWYQQKPGKAPKSLIYNTNNLQSGVPSRFSGSGSGTDFTLTISSLQPEDIATYYCLQHISRPRTFGTGTKLELK | 5.56 µg/mL
16 | DIVH2/DIVK3 (antibody, human IgG1, V domains shown, also called DIVHv2/DIVKv3) VH: EVQLLESGGGLVQPGGSLRLSCAGSGFTFTDFYMNWIRQPPGKAPEWIGFIRDKAKGYTTEYNPSVKGRFTISRDNSKNTLYLQMNSLRAEDTAVYYCAREGHTAAPFDYWGQGTLVTVSS VL: DIQMTQSPSSLSASVGDRVTITCRASQNIDKYLNWYQQKPGKAPKLLIYNTNNLQSGVPSRFSGSGSGTDFTLTISSLQPEDIATYYCLQHISRPRTFGTGTKLELK | 3.89 µg/mL
17 | DIVH1/DIVK3 (antibody, human IgG1, V domains shown, also called DIVHv1/DIVKv3) VH: EVQLLESGGGLVQPGGSLRLSCAGSGFTFTDFYMNWVRQAPGKGLEWVGFIRDKAKGYTTEYNPSVKGRFTISRDNSKNTLYLQMNSLRAEDTAVYYCAREGHTAAPFDYWGQGTLVTVSS VL: DIQMTQSPSSLSASVGDRVTITCRASQNIDKYLNWYQQKPGKAPKLLIYNTNNLQSGVPSRFSGSGSGTDFTLTISSLQPEDIATYYCLQHISRPRTFGTGTKLELK | 1.71 µg/mL
18 | DIVH3/DIVK2 (antibody, human IgG1, V domains shown, also called DIVHv3/DIVKv2) VH: EVKLQESGGGLVQPGGSMRISCSGSGFTFTDFYMNWIRQPPGKGPEWIGFIRDKAKGYTTEYNPSVKGRFTISRDNTQNTLHLQANTLRAEDTAVYYCAREGHTAAPFDYWGQGTTVTVSS VL: DIQMTQSPSSLSASVGDRVTITCKASQNIDKYLNWYQQKPGKAPKLLIYNTNNLQTGVPSRFSGSGSGTDFTLTISSLQPEDIATYYCLQHISRPRTFGTGTKLELK | 17.8 µg/mL
19 | DIVH1/DIVK4 (antibody, human IgG1, V domains shown, also called DIVHv1/DIVKv4) VH: EVQLLESGGGLVQPGGSLRLSCAGSGFTFTDFYMNWVRQAPGKGLEWVGFIRDKAKGYTTEYNPSVKGRFTISRDNSKNTLYLQMNSLRAEDTAVYYCAREGHTAAPFDYWGQGTLVTVSS VL: DIQMTQSPSSLSASVGDRVTITCKASQNIDKYLNWYQQKPGKAPKSLIYNTNNLQTGVPSRFSGSGSGTDFTLTISSLQPEDIATYYCLQHISRPRTFGTGTKLELK | 3.45 µg/mL
20 | DIVH1/DIVK5 (antibody, human IgG1, V domains shown, also called DIVHv1/DIVKv5) VH: EVQLLESGGGLVQPGGSLRLSCAGSGFTFTDFYMNWVRQAPGKGLEWVGFIRDKAKGYTTEYNPSVKGRFTISRDNSKNTLYLQMNSLRAEDTAVYYCAREGHTAAPFDYWGQGTLVTVSS VL: DIQMTQSPSSLSASVGDRVTITCKASQNIDKYLNWYQQKPGKSPKLLIYNTNNLQTGVPSRFSGSGSGTDFTLTISSLQPEDIATYYCLQHISRPRTFGTGTKLELK | 1.85 µg/mL

From patent publication US20050152898A1 (BIOVATION, published 2005)
